According to paper PMC3880588:
Changes are numbered by the printed parent chain.

How the values were obtained:
Experiment in all cases: EMSA
[1] = test system: T1, MBNL-N-M34 F202A;Y236A, Q9NR56-5; settings: EMSA: 10 mM HEPES pH 7.9, 3 mM MgCl2, 10 uM ZnCl2, 5% glycerol, 1 mM DTT, 20 ug/ml rRNA, 10 fmol RNA in 5 ul, 30 C 15 min, then heparin 5 min; 5% PAGE at 4 C …
T1 sequence: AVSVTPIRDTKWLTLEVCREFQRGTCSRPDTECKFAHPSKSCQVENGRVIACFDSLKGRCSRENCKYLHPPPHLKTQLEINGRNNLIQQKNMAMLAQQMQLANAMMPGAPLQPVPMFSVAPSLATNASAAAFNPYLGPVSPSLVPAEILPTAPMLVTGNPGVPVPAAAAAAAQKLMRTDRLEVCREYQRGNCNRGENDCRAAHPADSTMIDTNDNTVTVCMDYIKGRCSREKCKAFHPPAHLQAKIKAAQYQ

[2] = test system: T2, MBNL-N-M12 F36A;Y68A, Q9NR56-5; settings: no stable complex up to 2 uM; EMSA: 10 mM HEPES pH 7.9, 3 mM MgCl2, 10 uM ZnCl2, 5% glycerol, 1 mM DTT, 20 ug/ml rRNA, 10 fmol RNA in 5 ul, 30 C 15 min, then heparin 5 min; 5% PAGE at 4 C …
T2 sequence: T1 sequence with F35A, Y67A, A201F, A235Y

MBNL1-2-72, Q9NR56-5 = test system: T3, MBNL1-2-72, Q9NR56-5; settings: no binding at any concentration (up to 2000 nM); EMSA: 10 mM HEPES pH 7.9, 3 mM MgCl2, 10 uM ZnCl2, 5% glycerol, 1 mM DTT, 20 ug/ml rRNA, 10 fmol RNA in 5 ul, 30 C 15 min, then heparin 5 min; 5% PAGE at 4 C …
T3 sequence: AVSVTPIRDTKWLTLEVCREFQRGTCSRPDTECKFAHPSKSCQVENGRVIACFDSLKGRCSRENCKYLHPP

| Sequence | fold decrease in binding affinity vs WT (fold lower affinity than WT MBNL1-N) [1] | Kd [2] | Kd (MBNL1-2-72, Q9NR56-5) |
| --- | --- | --- | --- |
| GGGAGACAAGCUUAAGUCUACGCACCCUCAACCCGCACCUUGCGGGAUCACGCUGCCUGCUGCACCCCACCCCCUUCCCCCUUCCUUCCCCCCACCCCCGUACUCCACUGCCAACUCCCAG [Tpm1 URE RNA] | 20 | > 2 µM | > 2 µM |
| GGGAGACAAGCUUGAGCUGGAUGCCGCCUCUGCUGCUGC [Tpm1 Dugc RNA] | 20 | > 2 µM | > 2 µM |
| GGGAGACAAGCUUUGCAAACUGUUAAUCUCAACUAACUGCCGCUUAAAUAAUUAGUGCAGCUUUUAACUACUGGUUCUGUCCCAACUGGCUACUUGUGCCUAAAGCCCAAAGAAUU [Vldlr RNA] | 20 | > 2 µM | > 2 µM |
